Data from publication PMC9352680, “A comprehensive thermodynamic model for RNA binding by the Saccharomyces cerevisiae Pumilio protein PUF4”.

Target: T1, PUF4 RNA-binding domain (Saccharomyces cerevisiae, UniProt P25339 537-888)
T1 sequence: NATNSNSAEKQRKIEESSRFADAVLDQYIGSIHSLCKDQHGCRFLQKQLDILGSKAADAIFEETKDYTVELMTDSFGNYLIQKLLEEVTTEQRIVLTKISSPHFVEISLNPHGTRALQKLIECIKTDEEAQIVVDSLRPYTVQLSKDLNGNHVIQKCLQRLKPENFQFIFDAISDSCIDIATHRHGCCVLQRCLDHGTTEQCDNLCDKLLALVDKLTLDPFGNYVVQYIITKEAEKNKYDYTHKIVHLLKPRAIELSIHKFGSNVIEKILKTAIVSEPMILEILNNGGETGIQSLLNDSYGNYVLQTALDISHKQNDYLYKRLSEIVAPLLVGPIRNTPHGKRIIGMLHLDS
Experiment: Mg; RNA-MaP; 20 mM Na-HEPES pH 7.4, 30 mM KOAc, 0.75 mM MgCl2, 0.1% Tween-20, 5% glycerol, 0.1 mg/mL BSA, 2 mM DTT; 25 C; 0.0125-409.6 nM protein
Details: tags: N-His6-TEV cleaved; C-SNAP kept, Cy3B-labelled; label: tethered on chip by stalled RNA polymerase

B1: Id_ii_S2_P3E.2_K3.1_C3.2_[T-1C]_H3.1_A3.1_F3.1_T3.2_[T9C]_[A10G] (ssRNA)
RNA: UUUGAUUAAUAUGAUAUCGUUCUUUCUCCUGUAUAUACGUUCUUUCUCGAUAUCAUAUUAAUCUUU
B1 gave a Kd of 4.24 nM.

B2: If_S2_P3E.2_K3.1_C3.2_H3.1_A3.1_F3.1_T3.2 (ssRNA)
RNA: UUUGAUUAAUAUGAUAUCGUUCUUUCUCUUGUAUAUAUAUUCUUUCUCGAUAUCAUAUUAAUCUUU
B2 was tested, and the Kd was 1.16 nM.

B3: Id_ii_S2_P3E.2_K3.1_C3.2_[T-1A]_H3.1_A3.1_F3.1_T3.2_[T9A]_[A10T] (ssRNA)
RNA: UUUGAUUAAUAUGAUAUCGUUCUUUCUCAUGUAUAUAAUUUCUUUCUCGAUAUCAUAUUAAUCUUU
In the case of B3, the Kd is reported as 2.96 nM.

B4: Id_ii_S2_P3E.2_K3.1_C3.2_[T-1A]_H3.1_A3.1_F3.1_T3.2_[T9C]_[A10T] (ssRNA)
RNA: UUUGAUUAAUAUGAUAUCGUUCUUUCUCAUGUAUAUACUUUCUUUCUCGAUAUCAUAUUAAUCUUU
For B4, the Kd was 5.2 nM.

B5: Id_ii_S2_P3E.2_K3.1_C3.2_[T-1A]_H3.1_A3.1_F3.1_T3.2 (ssRNA)
RNA: UUUGAUUAAUAUGAUAUCGUUCUUUCUCAUGUAUAUAUAUUCUUUCUCGAUAUCAUAUUAAUCUUU
B5 gave a Kd of 1.35 nM.

B6: Id_ii_S2_P3E.2_K3.1_C3.2_[T-1C]_H3.1_A3.1_F3.1_T3.2_[T9A]_[A10T] (ssRNA)
RNA: UUUGAUUAAUAUGAUAUCGUUCUUUCUCCUGUAUAUAAUUUCUUUCUCGAUAUCAUAUUAAUCUUU
Work on B6 yielded a Kd of 1.48 nM.

B7: Id_ii_S2_P3E.3_K3.2_C3.2_[C-2G]_[T-1G]_H3.2_A3.1_F3.1_T3.2_[T9A] (ssRNA)
RNA: UUUGAUUAAUAUGAUAUCGUUCUUUCUGGUAUAUAUAAAUUCUUUCUCGAUAUCAUAUUAAUCUUU
B7 showed a Kd of 872 nM.

B8: Id_ii_S2_P3E.2_K3.1_C3.2_[T-1C]_H3.1_A3.1_F3.1_T3.2_[A10C] (ssRNA)
RNA: UUUGAUUAAUAUGAUAUCGUUCUUUCUCCUGUAUAUAUCUUCUUUCUCGAUAUCAUAUUAAUCUUU
B8 was tested, and the Kd was 0.998 nM.

B9: Id_ii_S2_P3E.2_K3.1_C3.2_H3.1_A3.1_F3.1_T3.2_[T9G]_[A10C] (ssRNA)
RNA: UUUGAUUAAUAUGAUAUCGUUCUUUCUCUUGUAUAUAGCUUCUUUCUCGAUAUCAUAUUAAUCUUU
B9 was tested, and the Kd was 2.46 nM.

B10: Id_ii_S2_P3E.2_K3.1_C3.2_H3.1_A3.1_F3.1_T3.2_[T9G]_[A10T] (ssRNA)
RNA: UUUGAUUAAUAUGAUAUCGUUCUUUCUCUUGUAUAUAGUUUCUUUCUCGAUAUCAUAUUAAUCUUU
In the case of B10, the Kd is reported as 4.32 nM.

B11: Id_ii_S2_P3E.3_K3.2_C3.2_[C-2G]_[T-1C]_H3.2_A3.1_F3.1_T3.2_[T9C]_[A10C] (ssRNA)
RNA: UUUGAUUAAUAUGAUAUCGUUCUUUCUGCUAUAUAUACCUUCUUUCUCGAUAUCAUAUUAAUCUUU
Binder B11 has a Kd of 329 nM.

B12: Id_ii_S2_P3E.2_K3.1_C3.2_[T-1A]_H3.1_A3.1_F3.1_T3.2_[T9A] (ssRNA)
RNA: UUUGAUUAAUAUGAUAUCGUUCUUUCUCAUGUAUAUAAAUUCUUUCUCGAUAUCAUAUUAAUCUUU
B12 showed a Kd of 3.89 nM.

B13: Id_ii_S2_P3E.2_K3.1_C3.2_[T-1A]_H3.1_A3.1_F3.1_T3.2_[A10T] (ssRNA)
RNA: UUUGAUUAAUAUGAUAUCGUUCUUUCUCAUGUAUAUAUUUUCUUUCUCGAUAUCAUAUUAAUCUUU
For B13, the Kd was 1.78 nM.

B14: Id_ii_S2_P3E.2_K3.1_C3.2_[T-1A]_H3.1_A3.1_F3.1_T3.2_[T9G]_[A10T] (ssRNA)
RNA: UUUGAUUAAUAUGAUAUCGUUCUUUCUCAUGUAUAUAGUUUCUUUCUCGAUAUCAUAUUAAUCUUU
Binder B14 has a Kd of 3.93 nM.

B15: Id_ii_S2_P3E.2_K3.1_C3.2_H3.1_A3.1_F3.1_T3.2_[A10T] (ssRNA)
RNA: UUUGAUUAAUAUGAUAUCGUUCUUUCUCUUGUAUAUAUUUUCUUUCUCGAUAUCAUAUUAAUCUUU
With B15 the Kd was 1.32 nM.

B16: Id_ii_S2_P3E.2_K3.1_C3.2_[T-1C]_H3.1_A3.1_F3.1_T3.2_[T9A]_[A10G] (ssRNA)
RNA: UUUGAUUAAUAUGAUAUCGUUCUUUCUCCUGUAUAUAAGUUCUUUCUCGAUAUCAUAUUAAUCUUU
B16 showed a Kd of 4.04 nM.

B17: Id_ii_S2_P3E.3_K3.2_C3.2_[C-2G]_[T-1C]_H3.2_A3.1_F3.1_T3.2_[A10T] (ssRNA)
RNA: UUUGAUUAAUAUGAUAUCGUUCUUUCUGCUAUAUAUAUUUUCUUUCUCGAUAUCAUAUUAAUCUUU
With B17 the Kd was 86.4 nM.

B18: Id_ii_S2_P3E.3_K3.2_C3.2_[C-2G]_H3.2_A3.1_F3.1_T3.2_[T9C]_[A10C] (ssRNA)
RNA: UUUGAUUAAUAUGAUAUCGUUCUUUCUGUUAUAUAUACCUUCUUUCUCGAUAUCAUAUUAAUCUUU
Binder B18 has a Kd of 31.2 nM.

B19: Id_ii_S2_P3E.2_K3.1_C3.2_[T-1G]_H3.1_A3.1_F3.1_T3.2_[T9A]_[A10G] (ssRNA)
RNA: UUUGAUUAAUAUGAUAUCGUUCUUUCUCGUGUAUAUAAGUUCUUUCUCGAUAUCAUAUUAAUCUUU
For B19, the Kd was 7.62 nM.

UCUCUUUGCAUUACUAUCUCUU (ssRNA) [Ib_S1_P5E.1_K5.1_C5.1_H5.1_[T3C]_A5.1_F5.1_[T8C]_T5.1] was tested, and the Kd was 1370 nM.

UCUCUUUAUAUUAAUAUCUCUU (ssRNA) [Ib_S1_P5E.1_K5.1_C5.1_H5.1_[G2A]_A5.1_F5.1_[T8A]_T5.1] showed a Kd of 698 nM.

With UCUCUUUGUUUUAGUAUCUCUU (ssRNA) [Ib_S1_P5E.1_K5.1_C5.1_H5.1_[A4T]_A5.1_F5.1_[T8G]_T5.1] the Kd was 70.8 nM.

Work on UCUCUUUGUCUUACUAUCUCUU (ssRNA) [Ib_S1_P5E.1_K5.1_C5.1_H5.1_[A4C]_A5.1_F5.1_[T8C]_T5.1] yielded a Kd of 86.7 nM.
